The source of these data is patent US20250121043A1.

What all share (assay): cell-based or functional assay
The target of one experiment is 17.4α/8.3β TCR (8.3-TCR).
For experiment [1], the target named is 17.6α/8.3β TCR (low affinity IGRP206-214-reactive Vα17.6/8.3β TCR).
Experiment [2] concerns the target Vα17.5+ TCR (CDR3-invariant Vα17.5-Jα42 chain with a single TCRβ chain) on TCRαβ-transfectants.

Bounds are passed on as bounds.

As for “NRP-V7/K^d-coated nanoparticles (from UniProt P01902 22-305) (peptide-MHC)”, the percentage of cells that had formed CD8 caps, 5 min of incubation with beads with 17.4α/8.3β TCR (8.3-TCR) is under 20%; in experiment [1], under 20%; in experiment [2], over 60%. This substance also registered a percentage of cells that had formed CD8 caps, 30 min of incubation with beads in experiment [1] of under 20%.
